Experimental data taken from the supplement of paper PMC10567573.
± gives the standard deviation.

Assay: protein stability index of a GFP-peptide fusion (GPS, HEK-293T) (PSI 1-6); higher = more stable
Conditions: c terminus: a fixed tail appended
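Note: 24-mer peptide tiles fused after GFP, lentivirally expressed, FACS-sorted into six equal bins by GFP/DsRed ratio, decoded by Illumina sequencing, PSI is the read-weighted mean bin number.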

Row | Sequence | protein stability index (treatment: DMSO) | protein stability index (treatment: MLN4924 1 uM, 8 h)
1 | PGDPKWLDVIERDLHRQFPFHEMF [TBC1D10A] | 2.46 ± 0.31 | 2.57 ± 0.41
2 | IDYYESKIRKIHTQRQYKEDESQS [CEP70] | 4.08 ± 0.084 | 4.2 ± 0.1
3 | ICDLARSIDFNKDGHIDINEFLEA [PPEF2] | 3.6 ± 0.31 | 4.04 ± 0.21
4 | CNTFVYSSSKGTIRLCDMRASALC [PPP2R2B] | 2.5 ± 0.53 | 2.34 ± 0.51
5 | VVEKRLCMYEHGEDTHQSPEPEDE [RSPH3] | 5.43 ± 0.43 | 5.58 ± 0.23
6 | RPIGEFRSNADYQYQLLRCNVDLL [CNOT7] | 2.5 ± 0.2 | 2.47 ± 0.16
7 | VHRLDLILCNKTAYQEVFKPENIS [SMG5] | 2.12 ± 0.48 | 2.15 ± 0.4
8 | CETCVGSWSIQMRQHHHQSSFPGS | 2.37 ± 0.3 | 2.34 ± 0.44
9 | ITTRVNSEQEHFLIVPFGLLYSEV [ADD1] | 2.74 ± 0.79 | 2.61 ± 0.81
10 | LPLAEREHVSRALCIHTGRELRCK [TRIB1] | 3.99 ± 0.32 | 3.93 ± 0.2
11 | QRFRQFQYREAAGPHEAFNKLWEL [ZNF449] | 2.17 ± 0.18 | 2.33 ± 0.19
12 | DSLDEARSSGSEGTPADTGDLSPG [PWWP2B] | 5.6 ± 0.18 | 5.52 ± 0.15
13 | IGGVATVVCQPNEFIMPDSAVVGD [SEPHS2] | 3.72 ± 0.34 | 3.76 ± 0.44
14 | DGTFSPVTLALFFVLYFLLACWTY [CLCN6] | 3.07 ± 0.34 | 2.9 ± 0.21
15 | GGLNRETNEKMLKAVFGKHGPISE [RBMY1A1] | 3.69 ± 0.28 | 3.81 ± 0.19
16 | VLMVGPNFRVGKKIGCGNFGELRL [CSNK1G1] | 2.42 ± 0.053 | 2.69 ± 0.61

Row | Sequence | protein stability index (treatment: DMSO) | protein stability index (treatment: MLN4924 1 uM, 8 h)
17 | DSDENSKPSVDTEGPALVEIDRSV [MIA2] | 5.16 ± 0.78 | 5.29 ± 0.56
18 | TLLEAEPPHVLISRPSAPFTEASM [ESR2] | 3.31 ± 0.26 | 3.46 ± 0.29
19 | ELDILPIHPPSGNSDLDPDAQNPM [BTBD10] | 5.45 ± 0.16 | 5.38 ± 0.16
20 | RPGQAPIGNPPVGPIGGMMPPQPG [ZNF207] | 4.14 ± 0.22 | 4.28 ± 0.38
21 | RIDSQFLIGDTLLVAPVLEPGKQE [MYORG] | 3.77 ± 0.18 | 3.81 ± 0.26
22 | GRGAQGENERVRGLETGDWGGAPK [ZSWIM9] | 5 ± 0.21 | 4.98 ± 0.24
23 | LSEALKEATKEVHTQAENAEFMRN [HMOX1] | 4.92 ± 0.1 | 5.01 ± 0.48
24 | CDPGTDPCPEDASTPRPPEASSSP [TLE6] | 5.61 ± 0.26 | 5.58 ± 0.28
25 | ALAAATAAAAAAASAAAATAAFTT [SPAG8] | 3.04 ± 0.18 | 3.25 ± 0.18
26 | IRSFGHFIARLQGSILQFNPEVGI [SMG5] | 2.45 ± 0.27 | 2.35 ± 0.25
27 | YPPQMGEEYSQIIYSTKLYRFFKY [BTBD10] | 2.88 ± 0.71 | 2.73 ± 0.83
28 | HEGKTDSERTDTAADGETTATEEL [EPB41L3] | 5.65 ± 0.34 | 5.51 ± 0.21
29 | LQKDLETRPTQHELRLYKQQVKKL [CEP70] | 4.19 ± 0.2 | 4.42 ± 0.37
30 | SALGPNVTKITLESFLAWKKRKRQ [ZC3H15] | 2.92 ± 0.14 | 3.14 ± 0.28
31 | PTRNDLESGLGHFSLRVHTGCHKK | 4.06 ± 0.18 | 4.11 ± 0.18
32 | LGYFIRSWRTLAILVNLQGTVVFL [SLC22A15] | 2.71 ± 0.55 | 2.62 ± 0.75
